The source of these data is patent US20250026844A1 (SHANDONG SIMCERE BIOPHARMACEUTICAL, published 2025).

A word on the EC50: it is the concentration giving half of the maximal effect. Usually EC50 (read off the curve) stands for the concentration needed to bring the measured effect to its halfway point. Usually Kd stands for the equilibrium constant for the complex coming apart. Broadly, the koff is a measure of how fast the partners let go of each other. As a reminder, the kon is the rate constant with which the complex forms.

The target of assay [1] is T1, human BCMA on cells (human, UniProt Q02223 1-184).
T1 construct: whole, on cells; also called H929 cells; U266 cells
T1 sequence (looked up): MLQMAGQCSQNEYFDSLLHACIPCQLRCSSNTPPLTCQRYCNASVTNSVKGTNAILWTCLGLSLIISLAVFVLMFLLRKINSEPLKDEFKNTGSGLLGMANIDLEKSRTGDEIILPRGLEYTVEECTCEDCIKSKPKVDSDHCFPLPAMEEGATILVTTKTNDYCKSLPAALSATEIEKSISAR
Briefly: FACS, U266 cells. As for the experimental part: (§1) H929 cells and U266 cells were scale-up cultured in T-75 cell culture flasks to the logarithmic growth phase, and the cells were pipetted into a single cell suspension. After the cells were counted, the cells were centrifuged and the cell pellet was resuspended in FACS buffer (PBS+2% fetal calf serum) to 2×10⁶ cells per ml, and the suspension was added to the 96-well FACS reaction plate at 50 μl per well, REGN5459-hlgG1 and HPN217-hHcAb antibodies were used as primary antibodies, and APC-labeled goat anti-human IgG (H+L) secondary antibodies (purchased from Jackson, catalog number: 109-605-088) were detected and analyzed by FACS (FACS Canto™, purchased from BD Corporation). The results are shown in Table 4 and FIGS. 2A and 2B, and indicate that both H929 cells and U266 cells can bind to REGN5459-hlgG1 and HPN217-hHcAb antibodies.
For orientation: Flow cytometry measures light scatter and fluorescence of single cells or particles in a stream.

The target in assay [2] is T2, monkey BCMA-His protein (monkey, UniProt A0A2K5UD97 1-53).
T2 construct: Bought protein; also called monkey BCMA protein; CynoBCMA-his
The assay is described as follows: ELISA, plate coated with monkey BCMA-His 1 ug/mL, antibody titrated from 100 nM, HRP secondary antibody, OD450. As for the experimental part: (§2) The specific method was as follows: Human BCMA protein (purchased from Acro, catalog number: BCA-H522y) and monkey BCMA protein (purchased from Acro, catalog number: BCA-C52H7) were diluted with PBS to a final concentration of 1 μg/mL, respectively, and then added to a 96-well ELISA plate at 50 al/well. The plate was sealed with a plastic film and incubated overnight at 4° C., the plate was washed twice with PBS the next day, and then a blocking solution [PBS+2% (w/v) BSA] was added for blocking at room temperature for 2 h. The blocking solution was discarded, the plate was washed 3 times with PBS, and 100 nM BCMA recombinant chimeric nanobody diluted gradiently or negative control antibody was added at 50 μl/well. After incubation at 37° C. for 2 h, the plate was washed 3 times with PBS. HRP (horseradish peroxidase)-labeled secondary antibody (purchased from Merck, catalog number: AP113P) was added, and incubated at 37° C. for 1 h, and the plate was washed 5 times with PBS. TMB substrate was added at 50 μl/well, and incubated at room temperature for 10 min, then a stop solution (1.0 M HCl) was added at 50 μl/well. The OD450 nm values were read by an ELISA microplate reader (Multimode Plate Reader, EnSight, purchased from Perkin Elmer). All antibodies bound to human BCMA protein. BCMA-Lab06 and BCMA-Lab07 had no cross-binding activity with monkey BCMA protein. […]
On the technique in general: An ELISA detects its analyte on a solid surface through an enzyme-linked reagent.

Assay [3] has as its target T3, human BCMA-His protein (human, UniProt Q02223 1-54).
T3 construct: Bought protein; also called human BCMA protein; huBCMA-His; not shown: His tag
T3 sequence (looked up): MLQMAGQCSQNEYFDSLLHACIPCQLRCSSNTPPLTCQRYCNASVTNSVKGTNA
The assay is described as follows: SPR (Biacore), antibody captured on Protein A chip, BCMA-His in solution. As for the experimental part: (§3) The flow cell was set to 25° C. The sample block was set to 16° C. Both were pretreated with the running buffer. In each cycle, an antibody to be detected was first captured with a Protein A chip, and then a single concentration of BCMA antigen protein was injected. The binding and dissociation processes of the antibody and the antigen protein were recorded, and finally Glycine pH 1.5 (GE Healthcare; BR-1003-54) was used to complete chip regeneration. Binding was measured by injecting different concentrations of BCMA-His in solution for 240 s with a flow rate of 30 μL/min. The concentration started from 200 nM (see the detailed results for the actual concentration in the test) and was diluted at 1:1, making a total of 5 concentrations. The dissociation phase was monitored for up to 600 s and was triggered by switching from sample solution to running buffer. The surface was regenerated by washing with a 10 mM glycine solution (pH 1.5) for 30 s at a flow rate of 30 μL/min. Bulk refractive index difference was corrected by subtracting the response obtained from the goat anti-human Fc surface. Blank injection was also subtracted (=double reference). For calculation of apparent KD and other kinetic parameters, Langmuir 1:1 model was used. The binding rate (Kₐ), dissociation rate (Kdis) and binding affinity (KD) of the recombinant candidate antibody to human BCMA protein are shown in the table, wherein REGN5459-hlgG1 antibody was used as a control.
A general note: In SPR one partner is held on a chip, and binding of the other changes the refractive index at the surface.

The target in assay [4] is T3, human BCMA-His protein. The description is as above. As to the method: as §3
The specific operating method referred to Example 5. The binding rate (Ka), dissociation rate (Kdis) and binding affinity (KD) of the humanized candidate nanobodies to human BCMA protein are shown Table 18, wherein REGN5459-hlgG1 antibody was used as a control.
The source holds these as a separate data set.

For assay [5], the target named is T2, monkey BCMA-His protein. The assay is described as follows: ELISA, plate coated with monkey BCMA-His 1 ug/mL, antibody titrated from 100 nM, HRP secondary antibody, OD450. As to the method: The binding activity of the control antibody to human BCMA-His protein (purchased from Acro, catalog number: BCA-H522y) and monkey BCMA-His protein (purchased from Acro, catalog number: BCA-C52H7) was detected by ELISA. The specific method was as follows: The antigen protein was diluted with PBS to a final concentration of 1 μg/mL, and then added to a 96-well ELISA plate at 50 μl per well. The plate was sealed with a plastic film and incubated overnight at 4° C., the plate was washed twice with PBS the next day, and then a blocking solution [PBS+2% (w/v) BSA] was added for blocking at room temperature for 2 h. The blocking solution was poured off and 50 μl of 100 nM serially diluted control antibody or negative control antibody was added to each well. After incubation at 37° C. for 2 h, the plate was washed 3 times with PBS. HRP (horseradish peroxidase)-labeled secondary antibody (purchased from Merck, catalog number: AP113P) was added, and incubated at 37° C. for 1 h, and the plate was washed 5 times with PBS. TMB substrate was added at 50 μl/well, and incubated at room temperature for 10 min, then a stop solution (1.0 M HCl) was added at 50 al/well. The OD450 nm values were read by an ELISA microplate reader (Multimode Plate Reader, EnSight, purchased from Perkin Elmer). The results are shown in Tables 2 and 3 and FIGS. 1A and 1B. […]
This is another data set of the same source.

For assay [6], the target named is T3, human BCMA-His protein. Briefly: SPR (Biacore), antibody captured on Protein A chip, BCMA-His in solution. As for the experimental part:
as §3
According to the method in Example 5, Biacore was used to detect the affinity of the recombinant antibodies to human BCMA protein.
This is another data set of the same source.

The target of assay [7] is T1, human BCMA on cells. Briefly: FACS, H929 cells. As for the experimental part:
(§4) The desired cells were scale-up cultured in T-75 cell culture flasks to the logarithmic growth phase, and the cells were pipetted into a single cell suspension. After the cells were counted, the cells were centrifuged and the cell pellet was resuspended in FACS buffer (PBS+2% fetal calf serum) to 2×10⁶ cells per ml, and the suspension was added to the 96-well FACS reaction plate at 50 μl per well, then the sample to be tested of the candidate antibody was added at 50 μl per well and the mixture was incubated at 4° C. for 1 h. The obtained mixture was centrifuged and washed 3 times with a PBS buffer. Secondary antibody anti-hlgG(Fc) Alexa 647 (purchased from Jackson, catalog number: 109-605-098) was added at 50 μl/well, and incubated on ice for 1 h. The obtained mixture was centrifuged and washed 3 times with a PBS buffer. 100 μl of the mixture was taken for detection and result analysis by FACS (FACS Canto™, purchased from BD Company). Data analysis was performed by software (FlowJo) to obtain the mean fluorescence intensity (MFI) of the cells. Then, a software (GraphPad Prism8) was used for analysis, data fitting and EC50 calculation. BCMA-Lab05, BCMA-Lab06, and BCMA-Lab08 had poor binding to H929 and U266 cells, while the other antibodies performed better.
(§5) The specific method was the same as in Example 4(B).

Assay [8] concerns the target T1, human BCMA on cells. The assay is described as follows: FACS, U266 cells. As for the experimental part: as §4
The source holds these as a separate data set.

The target of assay [9] is T3, human BCMA-His protein. The assay is described as follows: ligand competition ELISA: plate coated with human BCMA protein 1 ug/mL, antibody titrated, blocked ligand hAPRIL-biotin 0.5 ug/mL, OD450.
Assay [10] addresses T1, human BCMA on cells. Briefly: FACS, H929 cells. As for the experimental part:
as §1
The source holds these as a separate data set.

For assay [11], the target named is T1, human BCMA on cells. The assay is described as follows: FACS, U266 cells. As for the experimental part:
as §4, §5
The source holds these as a separate data set.

For assay [12], the target named is T1, human BCMA on cells. Briefly: FACS, H929 cells. As to the method: as §4
The source holds these as a separate data set.

Assay [13] concerns the target T3, human BCMA-His protein. The assay is described as follows: ligand competition ELISA: plate coated with human BCMA protein 1 ug/mL, antibody titrated, blocked ligand hAPRIL-biotin 0.5 ug/mL, OD450. As for the experimental part: The antigen protein was diluted with PBS to a final concentration of 1 μg/mL, and then added to a 96-well ELISA plate at 50 μl per well. The plate was sealed with a plastic film and incubated overnight at 4° C., the plate was washed twice with PBS the next day, and then a blocking solution [PBS+2% (w/v) BSA] was added for blocking at room temperature for 2 h. The blocking solution was discarded, the plate was washed 3 times with PBS, and 200 nM BCMA recombinant chimeric nanobody diluted gradiently or negative control antibody was added at 50 μl/well. hAPRIL-biotin (purchased from Acro, catalog number: APL-H82F5) was diluted to 0.5 μg/mL, with 50 μl per well. After incubation at 37° C. for 1.5 h, the plate was washed 3 times with PBS. HRP (horseradish peroxidase)-labeled secondary antibody (purchased from Sigma, catalog number: S2438-250 μg) was added, and incubated at 37° C. for 1 h, and the plate was washed 5 times with PBS. TMB substrate was added at 50 μl/well, and incubated at room temperature for 10 min, then a stop solution (1.0 M HCl) was added at 50 al/well. The OD450 nm values were read by an ELISA microplate reader (Multimode Plate Reader, EnSight, purchased from Perkin Elmer). BCMA-Lab05, BCMA-Lab06 and BCMA-Lab08 had average blocking effects, while the other antibodies had good blocking effects.
This is another data set of the same source.

Assay [14] addresses T3, human BCMA-His protein. The assay is described as follows: ELISA, plate coated with human BCMA-His 1 ug/mL, antibody titrated from 100 nM, HRP secondary antibody, OD450. As to the method: as §2

“And” between values parts separate entries of the source, which are not always exact repeats. Identical values can stand only once. Like-named read-outs stand apart in the source and are kept apart here.

T2 sequence (A0A2K5UD97 entry or part of it limits assumed): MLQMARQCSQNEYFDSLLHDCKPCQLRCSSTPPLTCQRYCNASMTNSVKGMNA

B1: REGN5459-hIgG1 (antibody, V domains shown)
VH: EVQLVESGGGLVQPGGSLRLSCAASGFTFSNFWMTWVRQAPGKGLEWVANMNQDGSEKYYVDSVKGRFTISRDNAKSSLYLQMNSLRAEDTAVYYCARDREYCISTSCYDDFDYWGQGTLVTVSS
VL: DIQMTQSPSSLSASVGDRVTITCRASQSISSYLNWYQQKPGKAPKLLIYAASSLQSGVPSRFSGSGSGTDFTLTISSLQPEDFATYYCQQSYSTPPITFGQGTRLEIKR
notes: Control antibody; also called REGN5459-hlgG1; BCMA antibody
With B1, the half-maximal effective concentration (EC50) was 9.12 nM with human BCMA on cells [1]; 9.39 nM and 13.2 nM in the assay with human BCMA on cells [7]; 7.14 nM and 16.6 nM and 9.49 nM with human BCMA on cells [8]; 6.78 nM with human BCMA on cells [10]; 16.6 nM and 32.2 nM with human BCMA on cells [11]; 5.24 nM and 9.39 nM and 6.46 nM with human BCMA on cells [12]. Besides, the “EC50 (read off the curve)” value in the assay with monkey BCMA-His protein [2], with monkey BCMA-His protein [5] and in the assay with human BCMA-His protein [14] was approximately 0.1 nM each time. Further, the Kd in the assay with human BCMA-His protein [3] stood at 0.233 nM; with human BCMA-His protein [4], 0.208 nM; with human BCMA-His protein [6], 0.267 nM. The koff with human BCMA-His protein [3] was found to be 0.000178 s⁻¹; in the assay with human BCMA-His protein [4] it was 0.000162 s⁻¹; with human BCMA-His protein [6] it was 0.000197 s⁻¹. Moreover, the kon with human BCMA-His protein [3] is 766000 M⁻¹ s⁻¹; with human BCMA-His protein [4], 781000 M⁻¹ s⁻¹; with human BCMA-His protein [6] it was 739000 M⁻¹ s⁻¹. Besides, the “IC50 (read off the curve)” value was approximately 5 nM in the assay with human BCMA-His protein [9]; ~6 nM and ~5 nM with human BCMA-His protein [13].
